Assay results from the DeepSol protein solubility set.

experiment: soluble on expression in E. coli; label from the status in PepcDB or PDB records

| Sequence | soluble on expression in E. coli |
| --- | --- |
| GPGSMDVYRQAAEIVGIVREGNGTAKALCLRKDMQKKKQTYAVVCETLRHYELLEDVLEVAEFFKYYPQANHEFAMCMAYDVVLGKGVNTHNDSTARAVSHSASYLREAYWQVRKHHVIPPRSSEKLDDEVAADTEGGARGKRRSGDSVSSSPSLQLPRYARVNTLKISVEELVSRLRRSAEVRKRARDAKDNDGDAAASSHPQQQNGDKRATRRASSRPHRPLPEFTQDPVVPHLLVFPPGTDLHAHPAVRSGQLILQDRASCLPAAVLLDAVPVEVIEGDTAGSSKGRKKAKGGTALGKEKGRGNETDAAARRPLEYVVDACAAPGNKTTQLAALGAPHIKIMATERDERRADLLSKRVASLGAADYVNVVSMDFFQLSSDDRAATEGILLDPSCSASGVMTRVDVALQHHHHHHHEQQRKGKARQADRRVSLLQGSRRGSHHEDADRNAAEEGQLDDGDREETANSGAINPAAQGNEFSMKEERVEKLARLQRKLLAHSLLSFDNCRTVVYSTCSVHEEENEEVVRQVLDDERVKARGWRLSNIMPNTWKTRGAEREGEEHPLRFTIRCDPATEATNGFYVARFDRVC | soluble |
| MKVHNDFTLYWRVFPSGKKVVYYYAYDESGKRLMGRSTGETNLTSARVKCNKLLKEGELVPNKNHVPTFAEYAEGWWEWETCAYLKKRRKRYSLTQTYADNNKKNLKNHLLPFFGNMPMNKITKIEVEDFFDALIEKEYQNTSINGFYGTLKTMLIEAVERNIIPKDPTDKMGRLVNDRRAIKIITPEEFKKLFVGDWRRVWESDRLSYTANKLAALTGMRASEVVGLKGSFVYDEHIYLCMQYDDYGYRPTKTKDKHNIPLTSDMINELKELKRMNGDGFVFSLDGGATPICRNTVYKHFHRALRNIGITEDEISERHLHLHAWRHFFNTEMLKGGLTVTQAQAVTGHKSERMTEWYCHFDPTEFAKAKEVQEALLRPAQKKAAKEEKAGAKTSGNKDKAVKVIPFPRKENKTAGEETQASLILPLPIFKAPAGLRRELLFLPFQHFPFFFLNCRFVPFLSATGHGIFKAGMGESMEEYLTIFEVAELTKYTVGTLRKFVQKRRVAFHKWGRSLRFRRAEIELWMKMGCGKAVYLPADGDGQTKASAMEIGAES | not soluble |
| GPGSPPSDPRSLHFYNPYHPNSYIRAMLAVSNVVQEYDSDGMFPVYGFGAVAPFTNGTSHFFPLSGNPSNAYLNGMQAVVDTYAGLLPMLQFSGPTNFAPTIRTITDGARRLRGVYTILLILTDGTITDMQDTIDAIVAADDAPLSIVIIGIGRADFSAMVQLDGDGGVLRDRSNRPARRDLVQFVSFSEFEGKNPARLAAAVLLEIPKQVEVWGRIVHATPGHF | not soluble |
| MLEVREVEKSFKKKKVLKGGSLSVNKGEIVGLLGPNGAGKTTLFNSIIGFISVDKGKVLLDGEDVTHLPPFKRAQKGLAFLPQEHTLFEDLTVLENLLIFLEFFTDSKEEAITKAEALLEDFGLLELKDQKAYALSGGQKRRLEIARSLITTPKYVLLDEPFAGLDPIIVSEIREIVKNLKNNGIGVLITDHNVRETIKMVDRVYIISEGKVLAHGKPEEVVNNEAVRKTYLGVDFKL | soluble |
| MGSDKIHHHHHHMKLLCSLASPYARCVRSLIRYLGIEDIEEVLVNPMENTAQLLDVNPLGQIPCLITNDGVPIFDSEVIMRYLDTELGAQEMFGGQPYNWVLQCQYSMIKGLIDSAVKLRQEQMREEEGVRSAFWTSRFEQALLRGLMQMEHQSVITQTTIQAPQLTLICLLDYVDFRHPELDWRKVAPATAIWFSEMRDLPAFVETRPQ | not soluble |
| MKSEEAYSILDIVSESEGQGVVLTRSGSICVSFELREPECYSLTPEDIDRRDGMFREAFKFLPDGTYVHKQDVFLKERYCPDIAGGSFLDRADARHFRGRLYVSHTCVMHFVLSGLKSLEKAYISSPLSYKENLHKEDLARLDEFLEGVDNAVGIIRSMRDTEIAPMSGQEMRDFTAGYTTLFDAPGAVVDIHADTELRTGKKRARCFAVCDEIFLPDGSLDSCVRDDSLPPAGSLLYHPMLERLGMYLPYNHIVNQVVFFEGNGRLRERIARNIDIYGSNSGMSRSIKVQYQKLDELQQEILEENETLVRSFFSVCVFDESEAELEKADKKIRETLNLARLGYYIPGYENLAAVHFACVPGQIHLMPRKYLFLTTLPIALCFFLQCGSFRNDSEGIYVHDRMYQVPLRKDIWDAGKKRVNARNGMVIAGTGGGKSAFTLNLTQQLIEQDYTVVVVEFGKSFSQLCRLYPDISLHVDYDGRTALGINPFDLQGEELDNGSIEMLSGVVQKYWRHMFTKDESEKEVALTRFIQDYYENVREGHNFESFYNHVTEHYPEILARKHIPKDYFSLESFSLNCGEFLPGRRYENVCKDTGTDFSGKRFIVFELTQIKQDRFLSNLVMGMIFTVIQKKLLSDRRKRGVLIFDEYGETAQMVDTATGTGIHSSVAFCYQKIRKENGAVYTIIQNPDQLPENEHTKNIIANTDMLFVLPTKEVIYQSVIDRFRLTHPGQIALMKSMRNNFSGQRPYSECFMRLGEHYATVTRLEFSREKFLAFQTEGEIWSDLEEKNRRMSMEDAIEEYIREHQ | not soluble |
| MTDFLEIRPLTKEAFTPFGDVIETTPSSMRHINGGQTERHHALSAPEAAGEGARIILNIFRGQPRVFPHKIDMMERHPLGSQSFSPLSGRPFLVVVAQDDGGRPARPQVFLARGDQGVNYRRNVWHYPLMPLQAVSDFLVADREGPGNNLEEYFFDEPFMIAEPSLAAALEHHHHHH | soluble |
| MGSDKIHHHHHHMTKDMQTFTLVPQGSLEGYIRAANAYPMLTAEEERALAERLHYQGDLEAAKHLILSHLRFVIHVARNYSGYGLPQADLIQEGNIGLMKAVRRFNPEVGVRLVSFAVHWIKAEIHEYVLRNWRIVKVATTKAQRKLFFNLRKAKTRLGWFNQDEVELVARELGVTTKDVREMESRMAAQDMTFDPTPEEDSHDGKAMSPMLYLQDKSSDFADGIEEDNWDTHAADKLTYALEGLDERSQHIIRARWLDDDNKSTLQELADQYGVSAERVRQLEKNAMKKLRAAIEA | not soluble |
| MLKIGVLVSGRGSNLQAIIDAIESGKVNASIELVISDNPKAYAIERCKKHNVECKVIQRKEFPSKKEFEERMALELKKKGVELVVLAGFMRILSHNFLKYFPNKVINIHPSLIPAFQGLHAQKQAVEFGVKFSGCTVHIVDESVDAGPVIVQAVVPVLPEDDENTLADRILKWEHKILPQTVQWFAQDRIIIDGRKVIVKDATYGTLPVNPALEIF | soluble |
| MGSDKIHHHHHHMNKTDIAQDTINAAVWTACDTFRGTVDPSVYKDYVLTMLFLKYVSDVWQDHYDDYKTKHGNKPGLIEELLKNERFVLPHRANFYTLYDQRHRPGNGERIDTALHAIEDANLGKLRDVFQDISFNANKLGEEQQKNDLLRHLLEDFAKPALNLRPSRIGQLDIIGNAYEYLIKNFASSSGKKAGEFYTPPEVSALMARLMDPQQGDEICDPTCGSGSLLLKCGRLIRERTGSGKYALYGQEAIGSTWALAKMNMFLHGEDNHRIEWGDTIRNPKLLAGNHLKHFDIVVANPPFSLEKWGHDSADTDPHDRFRRGLPPRTKGDYAFILHMIATMKPRTGRMAVVVPHGVLFRGAAEGRIRQKLIEENLLDVVIGLPEKLFYGTGIPAAVLVFRTKKKDKKVLFIDASRQYQDGKNQNLLRESDLQRILDTVQARQNVDKYAYLASPDEIAGHDYNLNIPRYVDTFEEEAEIDLMAVRREREQLKGELATLEMQMAAYLKELGYE | not soluble |
| MHHISLTPFGRQPVTAGILASQRLAEARSPLPEIDKWALFADLRTARARFGVSDRDLAVLYALLSFLPGRVLTDAAPLVVFPSNATLSDRAHGMAESTLRRHLAALVEAGLVARRDSANGKRYAHRNRAGELVTAYGFDLRPLLVRAAEIAETAAALEAEAEAMARARTALVLKLRDATKLAAYADPEGRAAGIEPRLMPIRRALRRRLTLADLAEMARTLDLVLGDIRRTLALRAAEMDGTVGRIERHHTESKTESSDLEGGHACGKTSGEAEKDCRNIGGESPDEKANRPSPNRAEPDEARPEELASLEINDNQRPAPTLPLGLVLKACPDLEPYAPEIRNWRDLTAAASRLRGMMGITPSAWEEAKAEMGAETASVALAAILQRFASIRNPGGYLRALTRRASEGAFSPTPMIMALLAETREA | not soluble |
| MLTMRICLRATYTQKEYKWESTVNEQISAASLYDRVARVIPKAEWMGFQDDVEAILELKRKRNAVILAHNYQTPEIFHGVADIVGDSLALARKAMEVEADVIVLAGVHFMAETAKLLNPEKTVLIPDMAAGCSLADSITPEDIALLRKAYPGVPVVTYVNTSAAVKAASDICCTSGNARQVVESLGVPRVLMLPDEYLAKNVAKETSVELIAWRGHCEVHELFTADDIRELRESHPGVIVLAHPECPPEVVDAADFSGSTAVMSDYVGRERPARVVLLTECSMSDNVAVHHPDVEFIRPCNLCPHMKRITLGNIRTALEENRHEVTVDPAIAGAARRAVERMLQIMAGDPLEHHHHHH | not soluble |
| MKYIIIGLGNYGHVLAEELSTLGHEVIGADLDEGRVDSIKDKIATAFVIDATDEQSLSVLPLNSVDMVIVAIGENFGASIRVVAMLKQKQVKHIYARAIDGVHKAVLEAFGLEKILTPEEDAARSLVQLLDFGTKMETFRVDSEYYVVKFNVPEKFVGYFVNELNLDEEFNLKLIGLKRSNTIKNCLGISLVEHKVVNELPEDAKIRPDDVLVCYGKYSDFQKLWKALLEHHHHHH | soluble |
| MLINEYRPGAGIGWHRDKPHFEDVAGISLLAPCSFRLRRKSGDRWERRTIVVEPRSAYLMTGPSRTEWEHSIPPLAEHRYSITLRTLRSQNPLEHHHHHH | not soluble |
| MAPKCWSNLPSDVKREVLEHGDCQQWFNVRLCSRADMNLVDSLKLRIPFLKIQISNTTFSIIIVESPSAILRIDLHQKSGGNAEFSVEIFKNSDLELGNLIKTIENTTLDAEISNLLEKSIFHRKIDIATCQIQADGLQAENPVLAMIHAKFTENAPKKLIFSGKSMEENRFLAKFFENLNIDFVFRSWRKDLSREWGEGMNHLRIKIFEVSKWTTLLGDFEHFTAYDEIEPVMYMARILSRPMKRSHWFPGFHVPVAERLFRQIFRQEMFEKFENHSIRKSPINLKLWIFVKFTKCGISIFVGDPKDFNERDGTCDLEWMCPNCAPKTMENWFFRETIGKLHF | not soluble |
| MGSDKIHHHHHHVSKLSKTRIILACLLNDSVMTTTTAALTPNPIPDLGTDLTTEPCPLTAAQLDVLNRQIKLWGKELGFAHIGVADVDLSQHEAALQDWLDKGYHGEMGYMANHGMMRARPAELHPGAIRVICARMDYLPPDAGFASNLTDPNLGYISRYAGGRDYHKLIRQRLKKLGDKINQYCQQLDFDATDFRPFVDSAPILERPLADKAGLGWTGKHSLILHPDAGSWFFLGELLINLPLPLDIPIEEGCNTCVACIKSCPTDAIVEPYVVDARRCISYLTIELQGAIPEEFRPLIENRIYGCDDCQLVCPVNAKAPLTKETDFHTRTTLIQPDLLTLFAWSETYFLNQTEGSAIRRIGHKRWLRNIAIALGNAPANPAIIEALEQRKHSEEVDDMVLEHIEWALVQQIQKAPQSALSRKTQRVIRSIQKGLPRDA | not soluble |
| MSGTASKGSSSDSASEKTEMRTYKSPKGNVNIPAHPKRIVTDFYAGELLSVGANVVGSGSWSFDNPFLKSKLKNVKDVGDPISVEKVMELQPDLIVVMNEENVDKLKKIAPTVVIPYNTAKNVEDTVSMFGDIAGAKDQAKSFMADFNKKAEAAKKKIAGVIDKDATFGIYENTDKGEFWVFNDNGGRGGQAVYNALGLKAPEKIEQDVIKKGEMKQLSQEVIPEYAADYMFITDYNPKGESKTLDKLENSSIWKNLDAVKHNRVFINDFDSFYPYDPISVSKQVDIITDMLIKRAEENLEHHHHHH | soluble |
